B1: AB5-20 (antibody, V domains shown)
VH: QVQLVESGGGVVQPGRSLRLSCTASGFTFRHYGLHWVRQAPGKGLEWVAVILYDGSDEDYRDSVKGRFTISRDNSKNTLYLQMNSLRPEDTAVYYCAKQSGPYCSGGNCYSGHFDYWGQGTPVSVSS
VL: DIQMTQSPSSLSASVGDRVTITCQASQDISKSLSWYEQKPGKAPRLLIFEASNLETGVPSRFSGSGSGTSFSFTISSLQPEDFATYYCQQYDNVPLTFGGGTKVERK
B2: AB5-21 (antibody, V domains shown)
VH: EVQLVESGGGLVQPGGSLRLSCAASGLIVSSNYMHWVRQAPGEGLEWVSVIYSGGSTFYADSVKGRFTISRDNSKNTLYLQMNSLRAEDTAVYYCARGLGDPMDVWGQGTTVTVSS
VL: DIQLTQSPSFLSASVGDRVTITCRASQGISSDLAWYQQKPGKAPKLLINAASTLQNGVPSRFSGSGSGTEFTLSISSLQPEDFATYYCQQLNSYPPKLTFGGGTKVEIK
B3: AB6-17 (antibody, V domains shown)
VH: QLQLQESGPGLVESSETLSLTCTVSSGSISRSTYYWGWIRQPPGKGMEWIGSISSGGSTYYNPSLNSRVTISIDTSKNQFSLKLRSVTAADTAVYYCARALQWPSPRIDYWAQGTLVTVSS
VL: DIQMTQSPSSLSASVGDRVTITCRASQSISSYLNWYQHKPGKAPKLLIYAASSLESGVPSRFTGSGSGTDFTLTIDSLQPEDFATYYCQQSYSTPLFTFGPGTTVDIK
B4: AB5-18 (antibody, V domains shown)
VH: EVQLVESGGGLVQPGGSLRLSCAASGITVTSNYMTWVRQAPGKGLEWVSLIYAGGSTFYADSVKGRFTVSRDKSKNTLYLQMNSLRGEDTAVYYCARDLQEAGGMDVWGQGTTVTVSS
VL: ENVLTQSPGTLSLSPGERATLSCRASQFVSSTFLAWYQQKPGQAPRLLMYGASNRATDIPDRFSGGGSGTDFTLTISRLEPEDFAVYYCQQFGSSPFTFGQGTKLEIK
B5: AB5-16 (antibody, V domains shown)
VH: QALMVQSEAAVKKPGASVKVSCKATGDAFSNHYLHWLRQAPGQGLEWLGIINPGAGSTTYAQKFQGRLTVTTDTSTNTVYMELSSLRSDDTAVYYCARDGAFIPSSYYYGMDVWGQGTTVTVSS
VL: EIVLTQSPGTLALSPGERATLSCRASQSVSSSYLAWYQQKPGQAPRLLIYGASSRATGVPDRFSGSGSGTDFTLTVSSLEPEDFAVYYCQQREAFGQGTKVEVK

Columns and labels:
[1] = molecular target: T1, SARS-CoV-2 wild-type (WT) spike trimer (SARS-CoV-2, wild type (Wuhan-Hu-1 …, UniProt P0DTC2)); assay: ELISA; conditions: both partners purified
T1 construct: also called spike protein

[2] = molecular target: T2, SARS-CoV-2 Omicron B.1.1.529 receptor-binding domain (RBD), His-tagged (SARS-CoV-2 Omicron B.1.1.529 (BA.1), strain); assay: BLI; conditions: both partners purified
T2 construct: also called B.1.1.529 RBD; RBD Omicron B.1.1.529

| Binder | binding result [1] | Kd [2] |
| --- | --- | --- |
| B1 | binds |  |
| B2 |  | 30 nM |
| B3 | binds |  |
| B4 |  | 3.4 nM |
| B5 | binds |  |

Reference: PMC11893383 (Frontiers in Immunology, 2025)
